The target of test [1] is T1, human Rh(D) antigen on Rh(D)-positive red blood cells (human, UniProt Q02161 2-417).
T1 construct: whole, on cells; also called wt; wild type Rh(D)
T1 sequence (looked up): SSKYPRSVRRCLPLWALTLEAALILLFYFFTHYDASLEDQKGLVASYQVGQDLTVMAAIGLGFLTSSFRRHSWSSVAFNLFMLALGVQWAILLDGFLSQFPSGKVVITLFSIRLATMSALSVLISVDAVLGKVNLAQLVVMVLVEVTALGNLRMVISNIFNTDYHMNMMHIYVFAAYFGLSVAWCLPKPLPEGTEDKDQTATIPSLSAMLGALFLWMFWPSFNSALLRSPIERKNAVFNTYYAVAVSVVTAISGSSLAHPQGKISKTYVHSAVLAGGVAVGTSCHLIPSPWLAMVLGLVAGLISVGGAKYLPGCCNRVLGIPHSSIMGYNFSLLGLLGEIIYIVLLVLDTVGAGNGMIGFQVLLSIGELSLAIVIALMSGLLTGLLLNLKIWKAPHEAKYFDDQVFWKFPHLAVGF
As to the kind of experiment: agglutination, anti-M13. On the procedure:
The binding of anti-Rh(D) Fab/phage or soluble Fab molecules to normal or partial Rh(D) antigens was assessed by indirect agglutination assays as described (Siegel et al., 1994, Blood 83:2334; Siegel et al., 1997, J. Immunol. Meth. 206: 73). […] Following a one-hour incubation at 37° C., the RBCs were washed 3 times with 2 ml of cold PBS to remove unbound antibody. The resulting RBC pellets were resuspended in 100 μl of a 10 μg/ml solution of sheep anti-M13 antibody (5 Prime-3 Prime, Boulder, Colo.) for Fab/phage experiments or goat anti-human κ or λ light chain antibody (Tago, Burlingame, Calif.) for $\gamma_1\kappa$ or $\gamma_1\lambda$ soluble Fab experiments, respectively. The RBC suspensions were transferred to the round-bottomed wells of a 96-well microplate and left undisturbed for 2 hours. Negative reactions show sharp ~2 millimeter diameter RBC spots whereas the RBCs in agglutinated wells form a thin carpet coating the entire floor of the well (Siegel et al., 1997, J. Immunol. Meth. 206:73). Agglutination titers for recombinant antibodies were determined by performing serial 2-fold dilutions in 1% BSA/PBS.
Fifty-six randomly chosen colonies were selected, and monoclonal Fab/phage preparations were separately produced from each of these individual colonies, using the methods described herein in Example 1. Rh(D) specificity was determined by indirect agglutination using anti-M13 antibody, as described herein in Examples 1 and 2.

For test [2], the target named is T1, human Rh(D) antigen on Rh(D)-positive …. Description: agglutination, anti-M13. The source holds these as a separate data set.

Where two headings read alike, the source gives them in different places.

B1: SH51 (Fab, V domains shown)
VH: EVQLLESGGGVVQPGRSLRLACAASGFSFRSYGMHWVRQAPGRGLEWVAFTWFDGSNKYYVDSVKGRFTISRDNSKNTLYLEMNSLRVDDTAVYYCAREASMLRGISRYYYAMDVWGPGTTVTVSS
VL: AELTQSPSFLSASVGDRVTITCRASQGIRSYLAWYQQKPGKAPKLLIYAASTLQSGVPSRFSGSGSGTEFTLTISSLQPEDFATYYCQQLNNYPPFTFGPGTKVDIKR
notes: Fab on M13 phage
In the case of B1, the binding result in test [1] is listed as “binds”.

B2: E1/M2 (Fab, V domains shown)
VH: EVQLLESGGGLVKPGGSLRLSCAASGFTFSSYSMHWVRQAPGKGLEWVSSISNSNTYIYYADAVKGRFTISRDNAKNSLYLQMNSLRAEDTAVYYCARDSRYSNFLRWVRSDGMDVWGQGTTVIVSS
VL: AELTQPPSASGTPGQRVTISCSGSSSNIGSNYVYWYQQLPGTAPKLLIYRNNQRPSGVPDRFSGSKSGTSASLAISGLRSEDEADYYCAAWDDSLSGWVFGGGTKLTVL
notes: Fab on M13 phage; heavy chain E1 with λ light chain M2; also called E01/M02
In the case of B2, the binding result in test [2] is recorded as “binds”.

B3: E1/M3 (Fab, V domains shown)
VH: EVQLLESGGGLVKPGGSLRLSCAASGFTFSSYSMHWVRQAPGKGLEWVSSISNSNTYIYYADAVKGRFTISRDNAKNSLYLQMNSLRAEDTAVYYCARDSRYSNFLRWVRSDGMDVWGQGTTVIVSS
VL: AELTQPPSASGTPGQRVTISCSGSSSNIGSNYVYWYQQLPGTAPKLLIYRNNQRPSGVPDRFSGSKSGTSASLAISGLRSEAEADYYCAAWDDSLSAVVFGGGTKLTVLL
notes: used both as Fab on M13 phage and as soluble γ1λ Fab; also called E01/M03; anti-epD3
Turning to B3, the binding result in test [2] was “binds”.

B4: E1/L3 (Fab, V domains shown)
VH: EVQLLESGGGLVKPGGSLRLSCAASGFTFSSYSMHWVRQAPGKGLEWVSSISNSNTYIYYADAVKGRFTISRDNAKNSLYLQMNSLRAEDTAVYYCARDSRYSNFLRWVRSDGMDVWGQGTTVIVSS
VL: AELTQPPSASGTPGQRVTISCSGSSSNIGNNHVSWYQQLPGMAPKLLIYSNGQRPSGVPDRFSGSKSGTSASLAISGLQSEDEADYYCAAWHDSLYGPVFGGGTKLTVL
notes: Fab on M13 phage; also called E1 with L3
For the molecule B4, the binding result in test [2] is “binds”.

B5: E1/L4 (Fab, V domains shown)
VH: EVQLLESGGGLVKPGGSLRLSCAASGFTFSSYSMHWVRQAPGKGLEWVSSISNSNTYIYYADAVKGRFTISRDNAKNSLYLQMNSLRAEDTAVYYCARDSRYSNFLRWVRSDGMDVWGQGTTVIVSS
VL: AELTQPPSASGTPGQRVSISCSGSSSNIGSNTVNWYQQLPGTAPKLLISTNNQGPSGVPDRFSGSKSGTSSSLAISGLRSEAEDDYYCAAWDDTLNGVVFGGGTKLTVL
notes: Fab on M13 phage; also called E1 with L4
With B5, in test [2], the binding result is listed as “binds”.

B6: SH55 (Fab, V domains shown)
VH: EVQLLESGGGVVQPGRSLRLSCVVSGFTFNNYGMHWVRQAPGKGLEWVAVIWFDGSNKYYADSVKGRFTISRDNSKNTLYLQMNSLRAEDTAVYYCARENQIKLWSRYLYYFDYWGQGTLVTVSS
VL: AELTQPPSASGTPGQRVTISCSGSSSNIGSKYVYWYQQLPGTAPKLLIYSNNQRPSGVPDRFSAFKSGTSASLAITGLQAEDEANYYCQSYDSGLSGWVFGGGTKLTVL
notes: Fab on M13 phage
Take B6: in test [1], the binding result is “binds”.

B7: SH53 (Fab, V domains shown)
VH: EVQLLESGGGGVQPGRSLRLSCAASGFTFNSYAMYWVRQPPGKGLEWVAAIWYDGSNKEYADFVKGRFTISRDNSKNTLSLQMNSLRDEDTAVYYCAREANLLRGWSRYYYGMDVWGQGTTVTVSS
VL: AELQDPVVSVALGQTVRITCQGDGLRSYYASWYQQKPGQAPKLVMYGRNNRPSGIPGRFSGSSSGQTAALTITGTQAEDEADYYCQSRATSGNPVVFGGGTKLTVL
notes: Fab on M13 phage
With B7, the binding result in test [1] is “binds”.

B8: SH54 (Fab, V domains shown)
VH: EVQLLESGGGVVQPGRSLRLSCAASGFTFSRNGMHWVRQAPGKGLEWVAFIWFDGSNKYYADSVKGRFTISRDNSKNTLYLQMNSLRADDTAVYYCAREEALFRGLTRWSYGMDVWGQGTTVSVSS
VL: AELTQSPSSMSASVGDRVTITCRASQSIGTYLNWYQQKPGKAPKLLIYAASSLQSGVPSRFSGSGSGTDFTLTISSLQPEDFATYYCQQSYSTPWTFGQGTKVEIKR
notes: Fab on M13 phage
On to B8, for which the binding result in test [1] is listed as “binds”.
